Source: US20100196361A1, “Method of inhibition of vascular development using an antibody” (DYAX CORP., priority 2003, published 2010)
Residue numbers refer to the chain shown, from its start.

T1: Tie1-EpoR chimeric receptor (UniProt P14753+P35590)
T1 construct: PCR amplified extracellular part of human Tie1 (bp 37-2316 of X60975); expressed in transfected cells
T1 sequence (P35590+P14753 with tags, fused parts or gaps): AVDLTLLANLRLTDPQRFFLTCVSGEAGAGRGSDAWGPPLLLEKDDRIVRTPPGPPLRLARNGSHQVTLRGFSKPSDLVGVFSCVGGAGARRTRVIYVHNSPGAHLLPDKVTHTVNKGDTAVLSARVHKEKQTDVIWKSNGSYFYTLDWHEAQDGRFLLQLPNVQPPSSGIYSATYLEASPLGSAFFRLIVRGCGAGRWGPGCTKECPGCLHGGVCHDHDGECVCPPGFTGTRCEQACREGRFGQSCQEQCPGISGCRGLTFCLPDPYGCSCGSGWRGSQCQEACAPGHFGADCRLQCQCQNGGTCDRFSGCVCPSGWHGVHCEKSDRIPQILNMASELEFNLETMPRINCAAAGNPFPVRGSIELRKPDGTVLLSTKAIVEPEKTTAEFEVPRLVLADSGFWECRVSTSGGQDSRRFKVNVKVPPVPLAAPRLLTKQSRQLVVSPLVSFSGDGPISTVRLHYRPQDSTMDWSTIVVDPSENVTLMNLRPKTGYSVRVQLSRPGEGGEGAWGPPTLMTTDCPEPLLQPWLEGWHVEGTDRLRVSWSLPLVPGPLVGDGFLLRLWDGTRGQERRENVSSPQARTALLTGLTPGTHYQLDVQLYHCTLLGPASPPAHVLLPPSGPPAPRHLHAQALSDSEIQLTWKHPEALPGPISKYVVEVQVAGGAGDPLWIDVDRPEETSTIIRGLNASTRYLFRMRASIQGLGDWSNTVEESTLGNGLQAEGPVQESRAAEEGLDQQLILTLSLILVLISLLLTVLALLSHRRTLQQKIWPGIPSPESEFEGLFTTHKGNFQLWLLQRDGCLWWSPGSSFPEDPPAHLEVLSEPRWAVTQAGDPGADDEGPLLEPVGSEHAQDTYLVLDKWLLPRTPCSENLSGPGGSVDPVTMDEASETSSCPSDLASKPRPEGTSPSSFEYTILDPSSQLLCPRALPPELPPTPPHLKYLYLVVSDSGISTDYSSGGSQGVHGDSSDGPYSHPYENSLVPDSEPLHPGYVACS

B1: A10: anti-Tie1 antibody clone; variable domains in FIGS. 21A and 21B (antibody, V domains shown)
VH: EVQLLESGGGLVQPGGSLRLSCAASGFTFSNYVMVWVRQAPGKGLEWVSGIYPSGGHTKYADSVKGRFTISRDNSKNTLYLQMNSLRAEDTAVYYCARVNYYDSSGYGPIAPGLDYWGQGTLV
VL: HSAQDIQMTQSPGTLSLSPGERATLFCRASQRVTSNSLAWYQQRPGQAPRLLIYDASTRATGIPDRFSGSGSGRDFTLTISRLEPEDFAVYYCQRYGSSVLYSFGQGTKLEIT
B2: P-B3: anti-Tie1 antibody clone; variable domains in FIGS. 12A and 12B (antibody, V domains shown)
VH: EVQLLESGGGLVQPGGSLRLSCAASGFTFSRYGMHWVRQAPGKGLEWVSVISPSGGMTYYADSVKGRFTISRDNTKNTLYLQMNSLRAEDTAVYYCARVGATGPFDIWGQGTMVTVSSASTKGPSVFPLAP
VL: QDIQMTQSPATLSLSPGERATLSCRASQSVSTYLAWYQQKPGQAPRLLIYDASNRATGIPGRFSGSGSGTDFTLTISSLEAEDFAVYYCQQRSSWPITFGQG
B3: P-C6: anti-Tie1 antibody clone; variable domains in FIGS. 13A and 13B (antibody, V domains shown)
VH: EVQLLESGGGLVQPGGSLRLSCAASGFTFSHYGMTWVRQAPGKGLEWVSVISPSGGQTGYADSVKGRFTISRDNSKNTLYLQMNSLRAEDTAVYYCAGGGYAAFDYWGQGTLVTVSSASTKGPSVFPLAPSSKSTSGGTAALG
VL: B2 VL with T32S, G61A, A81P, S94N, I97L, Q101G
B4: C7: anti-Tie1 antibody clone; variable domains in FIGS. 25A and 25B (antibody, V domains shown)
VH: EVQLLESGGGLVQPGGSLRLSCAASGFTFSRYVMYWVRQAPGKGLEWVSVIYPSGGATYYADSVKGRFTISRDNSKNTLYLQMNSLRAEDTAVYYCARRGSSGAFDYWGQGTLVTVSSASTKGPSVFP
VL: HSAQSVLTQPASVSGSPGQSITISCTGTSSDIGRYNYASWYQQRPGKSPKLLIYEVSDRPSGVSNRFSGSKSGNTASLIISGLQAEDEADYYCSSYSSTNSLQVVFGGGTKLSVLGQPKAAPSVTLFPPSSEELQANKATLVCL
B5: A2: anti-Tie1 antibody clone; variable domains in FIGS. 20A and 20B (antibody, V domains shown)
VH: EVQLLESGGGLVQPGGSLRLSCAASGFTFSRYTMMWVRQAPGKGLEWVSGIYPSGGVTLYADSVKGRFTISRDNSKNTLYLQMNSLRAEDTAVYYCARVNYYDSSGYGPIAPGLDYWGQGTLVTVSSASTKGPSVFP
VL: HSAQDIQMTQSPGTLSLSPGERATLSCRASRSVIISYVAWYQQKPGQAPRLLIYGASTRATGIPDRFSGSGSGTDFTLTISRLEPEDFAVYFCQLYGRSPRIIFGQGTRLEIK
B6: P-B1: anti-Tie1 antibody clone; variable domains in FIGS. 11A and 11B (antibody, V domains shown)
VH: EVQLLESGGGLVQPGGSLRLSCAASGFTFSRYPMVWVRQAPGKGLEWVSVISPSGGQTFYADSVKGRFTISRDNSKNTLYLQMNSLRAEDTAVYYCARGVLTTAFDIWGQGTMVTVSSASTKGPSVFPLAPSSK
VL: QDIQMTQSPSSLSASVGDRVTITCRASQNINSYLNWYQQKPGQAPKLLIYAASNLETAVPSRFSGSGSGTDFTLTISSLQPEDFATYYCQQFNTYPLTFGGG
B7: M0053F04: Tie1-binding antibody; LC SEQ ID NO:392, HC SEQ ID NO:394 (antibody, V domains shown)
VH: EVQLLESGGGLVQPGGSLRLSCAASGFTFSGYGMYWVRQAPGKGLEWVSVISPSGGYTHYADSVKGRFTISRDNSKNTLYLQMNSLRAEDTAVYYCARAYSSGWYLDYWGQGTLVTVSS
VL: QDIQMTQSPATLSLSPGERATLSCRASQSVSSYLAWYQQKPGQAPRLLIYDTSNRATGIPARFSGSGSGTDFTLTISSLEPEDFAVYYCQQRSNWPITFGQGTRLEIK
modifications: Antibody
B8: M0045B03: Tie1-binding antibody; LC SEQ ID NO:260, HC SEQ ID NO:262 (antibody, V domains shown)
VH: EVQLLESGGGLVQPGGSLRLSCAASGFTFSQYPMIWVRQAPGKGLEWVSVISPSGGHTSYADSVKGRFTISRDNSKNTLYLQMNSLRAEDTAVYYCARIQYYGGAFDIWGQGKMVTVSS
VL: QDIQMTQSPDTLSLSPGERATLSCRASQSISRYLAWYQQRPGQAPSLLIYDASERAAGIPARFSGSGSGTDFTLTISSLEPEDFAVYYCQQRGNWPLTFGGGTKVDIR
modifications: Antibody
B9: M0044B08: Tie1-binding antibody; LC SEQ ID NO:180, HC SEQ ID NO:182 (antibody, V domains shown)
VH: EVQLLESGGGLVQPGGSLRLSCAASGFTFSAYGMGWVRQAPGKGLEWVSVISPSGGQTSYADSVKGRFTISRDNSKNTLYLQMNSLRAEDTALYYCAGGDRYGPLHYWGQGTLVTVSS
VL: QDIQMTQSPSFLSASVGDRVTISCRASQYISIYLNWYQQRPGEAPKLLINAASSLQSGDPSRFSGSGSGTDFTLTINSLQPDDFATYYCQQYKSYPLTFGEGTKVEIK
modifications: Antibody
B10: M0056G08: Tie1-binding antibody; LC SEQ ID NO:568, HC SEQ ID NO:570 (antibody, V domains shown)
VH: EVQLLESGGGLVQPGGSLRLSCAASGFTFSHYGMWWVRQAPGKGLEWVSVISPSGGQTNYADSVKGRFTISRDNSKNTLYLQMNSLRAEDTAVYYCAKGQIHGGNLASWGQGTLVTVSS
VL: QDIQMTQSPGTLSLSPGERATLSCRASQSISSSYLAWYQQKPGQAPRLLLYGTSNRATGIPDRFSGSGSGTDFTLTISRLEPEDFALYYCQQRYKWPLTFGPGTKVDFK
modifications: Antibody

Biological target: T1, Tie1-EpoR chimeric receptor
Test: BaF3 bioassay (Tie1/EpoR chimeric BaF3 cell assay)
Type: cell-based, human
Conditions: 100 ng/ml E3 IgG together with 100 (1:1) or 500 (1:5) ng/ml test antibody
Excerpt: BaF3 bioassay. To generate Tie1-EpoR expressing BaF3 cells for the bioassay, BaF3 pre-B cells were stably transfected with a nucleic acid that expresses chimeric receptor containing the extracellular domain of human Tie1 fused with the transmembrane and cytoplasmic domains of the mouse erythropoietin receptor. The nucleic acid used was a Tie1-EpoR chimeric cDNA in a pEF-BOS expression vector. The nucleic acid encoding the chimeric receptor was constructed by cloning the PCR amplified extracellular part of human Tie1 (bp 37-2316 of X60975) as EcoRI-BglII fragment into mEpoR-pcDNA vector. The cDNA encoding for the chimeric receptor consisting of the extracellular part of Tie1 fused with the transmembrane and intracellular domains of EpoR was subcloned into the pEF-BOS expression vector. Vector was linearized and co-transfected into BaF3 cells with pcDNA3.1(+) Zeo vector (Invitrogen). Stable cell pools were generated by selection with 250 μg/ml Zeocin. The expression of Tie1/EpoR fusion protein in several clones was analyzed by Western blotting with an antibody against EpoR.
To perform the assays, BaF3 cells expressing the Tie1-EpoR chimera were split in 96-well microtiter plates at 50 000 cells/well in the presence of the indicated concentrations of anti-Tie1 antibodies. The E3 antibody used in this study was the germ-lined E3 antibody (DX-2220). As controls, Zeocin resistant pools not expressing the Tie1-EpoR were used. After 48 h, the viability of the cells was determined by adding MTT (3-(4,5-dimethylthiazol-2-yl)-2,5-diphenyl tetrazolium bromide (Sigma), 0.5 mg/ml), followed by further 2 h of culture, addition of an equal volume of cell lysis solution (10% SDS, 10 mM HCl) and incubation overnight at 37° C. Absorbance was measured at 540 nm.
Stimulation and inhibition of Tie1 in Tie1-EpoR transfected BaF3 cells and human primary endothelial cells. Although no ligand for Tie1 has been identified, we used the following efficient screening method for Tie1-binding proteins. Interleukin-3 dependent pre-B-lymphocyte (BaF3) cells were transfected with a construct that expresses a Tie1-EpoR fusion protein. Since BaF3 cells are IL-3 dependent, they die unless IL-3 is provided. However, Tie-EpoR receptor expressing BaF3 cells can survive and proliferate if the medium contains a Tie1-binding protein, either a natural ligand or an artificial mimetic. Cell survival can be quantitated, e.g., by colorimetric MTT-assay, which measures mitochondrial activity.
To determine if any of the other monoclonal antibodies tested inhibit the survival effect of E3 IgG in Tie1-EpoR BaF3 assay, antibodies were studied in combination with E3 IgG. A concentration of 100 ng/ml of E3 IgG together with 100 (1:1) or 500 (1:5) ng/ml of the other antibodies were used and the viability of Tie1-EpoR cells was measured.

Row | Molecule | effect on the survival effect of E3 IgG in Tie1-EpoR BaF3 assay
1 | B1 | inhibited the viability effect of E3 IgG to some extent
2 | B2 | inhibited the viability effect of E3 IgG to some extent
3 | B3 | inhibited the viability effect of E3 IgG to some extent
4 | B4 | promoted the survival of Tie1/EpoR BaF3 cells in combination with E3 IgG
5 | B5 | inhibited the viability effect of E3 IgG to some extent
6 | B6 | inhibited the viability effect of E3 IgG to some extent

Biological target: Tie1 (Homo sapiens, UniProt P35590)
Sequence (P35590 22-1138): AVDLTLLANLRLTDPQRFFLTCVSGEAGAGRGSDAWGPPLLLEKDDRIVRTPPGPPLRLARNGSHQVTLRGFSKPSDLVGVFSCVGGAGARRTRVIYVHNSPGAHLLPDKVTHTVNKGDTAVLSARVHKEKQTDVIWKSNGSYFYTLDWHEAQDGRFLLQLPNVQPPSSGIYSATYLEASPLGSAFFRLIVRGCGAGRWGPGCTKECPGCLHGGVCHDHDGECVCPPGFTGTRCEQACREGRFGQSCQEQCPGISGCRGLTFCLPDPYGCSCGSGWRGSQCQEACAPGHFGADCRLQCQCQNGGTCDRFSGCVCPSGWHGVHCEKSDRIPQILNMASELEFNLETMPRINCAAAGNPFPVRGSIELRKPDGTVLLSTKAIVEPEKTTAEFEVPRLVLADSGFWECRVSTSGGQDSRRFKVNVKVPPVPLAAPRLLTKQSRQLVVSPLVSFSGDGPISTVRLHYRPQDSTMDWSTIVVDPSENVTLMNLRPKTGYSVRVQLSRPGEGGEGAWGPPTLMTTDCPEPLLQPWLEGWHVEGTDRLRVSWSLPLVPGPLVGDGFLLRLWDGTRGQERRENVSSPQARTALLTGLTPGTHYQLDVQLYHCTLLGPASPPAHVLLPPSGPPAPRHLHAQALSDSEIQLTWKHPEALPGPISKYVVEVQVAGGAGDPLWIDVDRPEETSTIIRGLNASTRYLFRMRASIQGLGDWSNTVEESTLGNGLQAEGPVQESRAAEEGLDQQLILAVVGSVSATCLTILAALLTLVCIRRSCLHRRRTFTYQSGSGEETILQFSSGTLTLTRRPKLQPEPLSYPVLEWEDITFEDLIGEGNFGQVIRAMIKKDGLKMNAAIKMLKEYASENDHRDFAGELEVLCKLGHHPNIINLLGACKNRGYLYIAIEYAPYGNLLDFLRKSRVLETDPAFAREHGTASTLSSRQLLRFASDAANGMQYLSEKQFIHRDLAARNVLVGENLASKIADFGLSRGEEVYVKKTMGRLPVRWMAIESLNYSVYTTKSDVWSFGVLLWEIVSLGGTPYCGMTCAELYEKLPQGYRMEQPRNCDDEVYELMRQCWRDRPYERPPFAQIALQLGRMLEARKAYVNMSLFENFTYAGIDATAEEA
Test: Competition with E3 for binding to Tie1
Conditions: not given

Row | competition with E3 for binding to Tie1 | Molecule
7 | competes with E3 for binding to Tie1 | B7
8 | competes with E3 for binding to Tie1 | B8
9 | competes with E3 for binding to Tie1 | B9
10 | competes with E3 for binding to Tie1 | B10
